The values that follow come from article PMC2897027 (Journal of molecular biology, 2010).

Assay [1] has as its target CTD MSK1 construct comprising residues 398-738 (human) (UniProt O75582). The experiment in a line: SEC.
Assay [2] addresses CTD MSK1 construct comprising residues 414-750 (human) (UniProt O75582). The assay can be described thus: SEC. In general terms: In gel filtration, larger molecules generally elute earlier.
The target of assay [3] is "full length" C-terminal kinase domain of MSK1 (residues 414-802) (human, UniProt O75582 414-802). The experiment in a line: SPR.
Chain of "full length" C-terminal kinase domain of MSK1 (residues 414-802) (O75582 414-802): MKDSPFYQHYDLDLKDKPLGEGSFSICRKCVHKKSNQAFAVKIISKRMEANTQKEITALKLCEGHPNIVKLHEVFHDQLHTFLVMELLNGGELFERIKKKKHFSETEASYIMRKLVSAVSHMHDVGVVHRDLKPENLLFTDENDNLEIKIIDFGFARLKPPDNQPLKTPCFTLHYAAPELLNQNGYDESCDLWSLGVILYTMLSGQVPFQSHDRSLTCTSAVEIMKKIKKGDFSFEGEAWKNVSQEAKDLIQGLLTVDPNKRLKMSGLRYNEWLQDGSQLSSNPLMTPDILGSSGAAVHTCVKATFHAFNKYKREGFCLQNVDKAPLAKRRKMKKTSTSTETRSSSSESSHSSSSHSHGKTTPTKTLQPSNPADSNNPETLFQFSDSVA

Usually stoichiometry N stands for a count of units in the complex or per binding partner. “CTD MSK1 construct comprising residues 398-738 (from UniProt O75582 398-738) (domain or fragment)”: the stoichiometry N in assay [1] amounted to 2.

“CTD MSK1 construct comprising residues 414-750 (from UniProt O75582 414-750) (domain or fragment)” registered a stoichiometry N in assay [2] of 2.

B1: Full length human ERK1 (enzyme, UniProt P27361 1-379, looked up)
chain: MAAAAAQGGGGGEPRRTEGVGPGVPGEVEMVKGQPFDVGPRYTQLQYIGEGAYGMVSSAYDHVRKTRVAIKKISPFEHQTYCQRTLREIQILLRFRHENVIGIRDILRASTLEAMRDVYIVQDLMETDLYKLLKSQQLSNDHICYFLYQILRGLKYIHSANVLHRDLKPSNLLINTTCDLKICDFGLARIADPEHDHTGFLTEYVATRWYRAPEIMLNSKGYTKSIDIWSVGCILAEMLSNRPIFPGKHYLDQLNHILGILGSPSQEDLNCIINMKARNYLQSLPSKTKVAWAKLFPKSDSKALDLLDRMLTFNPNKRITVEEALAHPYLEQYYDPTDEPVAEEPFTFAMELDDLPKERLKELIFQETARFQPGVLEAP
The Kd is a measure of binding affinity in units of concentration. Read a high Kd as weaker binding. Molecule B1 gave a Kd in assay [3] of 74 ± 6 nM.
